# Measurements published in patent US20160166675A1.
# “And” between values parts separate entries of the source, which are not always exact repeats. Equal entries are not always repeated.
# Biological target: purified EV71 virus-like particles (purified antigen solution of Example 5) (EV71 (enterovirus 71), C4a subtype) (UniProt B9VUU3)
# Assay: indirect ELISA, VLP coated 1 ug/ml, control serum
substance,measurement,value
Negative serum,OD450nm,0.049 OD and 0.051 OD
